Paper PMC10180154

Assays:
[1] = biological target: T1, LRP6 (recombinant human LRP-6, Fc chimera) (Homo sapiens) (UniProt O75581); experiment: SPR; conditions: CE-LIF: incubation pH 8.0, 0.155% glutathione, 0.395% Tris-HCl; running buffer 50 mM borate pH 7.6, 20 kV, 25 C (CE-SELEX conditions). SPR: PBST pH 7.4, 0.05% …
T1 sequence: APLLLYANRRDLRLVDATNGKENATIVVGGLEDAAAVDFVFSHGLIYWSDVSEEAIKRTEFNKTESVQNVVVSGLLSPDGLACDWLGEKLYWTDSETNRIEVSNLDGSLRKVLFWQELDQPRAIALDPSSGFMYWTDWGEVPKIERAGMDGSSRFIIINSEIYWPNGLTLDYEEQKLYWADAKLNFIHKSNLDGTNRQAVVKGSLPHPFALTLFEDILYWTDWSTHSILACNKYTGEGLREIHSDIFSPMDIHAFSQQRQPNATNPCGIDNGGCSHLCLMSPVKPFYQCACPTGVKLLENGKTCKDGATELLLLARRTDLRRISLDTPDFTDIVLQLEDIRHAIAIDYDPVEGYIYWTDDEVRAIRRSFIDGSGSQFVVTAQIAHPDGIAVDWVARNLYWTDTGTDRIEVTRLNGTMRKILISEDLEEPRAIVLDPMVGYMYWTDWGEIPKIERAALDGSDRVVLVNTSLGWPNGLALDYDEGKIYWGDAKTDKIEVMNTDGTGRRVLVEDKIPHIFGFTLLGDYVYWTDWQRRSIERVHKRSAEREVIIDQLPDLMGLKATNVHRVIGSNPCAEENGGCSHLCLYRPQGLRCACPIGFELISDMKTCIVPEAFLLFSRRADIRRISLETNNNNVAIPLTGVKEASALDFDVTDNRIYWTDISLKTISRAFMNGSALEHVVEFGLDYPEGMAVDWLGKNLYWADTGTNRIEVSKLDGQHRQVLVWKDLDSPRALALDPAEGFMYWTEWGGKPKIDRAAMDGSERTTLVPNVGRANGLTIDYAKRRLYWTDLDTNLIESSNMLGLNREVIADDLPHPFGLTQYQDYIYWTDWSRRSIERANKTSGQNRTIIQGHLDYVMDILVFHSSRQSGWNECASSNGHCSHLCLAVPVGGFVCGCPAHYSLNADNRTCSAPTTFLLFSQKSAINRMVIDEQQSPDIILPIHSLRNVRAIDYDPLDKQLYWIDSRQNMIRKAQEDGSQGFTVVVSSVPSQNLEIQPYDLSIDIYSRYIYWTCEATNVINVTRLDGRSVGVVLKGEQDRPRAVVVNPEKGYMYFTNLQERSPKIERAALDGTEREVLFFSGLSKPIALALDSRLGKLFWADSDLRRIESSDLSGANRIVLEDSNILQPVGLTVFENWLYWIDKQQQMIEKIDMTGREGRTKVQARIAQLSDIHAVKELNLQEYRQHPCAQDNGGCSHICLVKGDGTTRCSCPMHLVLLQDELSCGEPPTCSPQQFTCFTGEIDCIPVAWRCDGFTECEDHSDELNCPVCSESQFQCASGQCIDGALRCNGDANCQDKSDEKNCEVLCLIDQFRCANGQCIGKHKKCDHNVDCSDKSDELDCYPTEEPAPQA

[2] = biological target: T1, LRP6 (recombinant human LRP-6, Fc chimera) (Homo sapiens); experiment: CE-LIF (NECEEM); conditions: CE-LIF: incubation pH 8.0, 0.155% glutathione, 0.395% Tris-HCl; running buffer 50 mM borate pH 7.6, 20 kV, 25 C (CE-SELEX conditions). SPR: PBST pH 7.4, 0.05% …

Row | Sequence | Kd [1] | Kd [2]
1 | AGCAGCACAGAGGTCAGATGGCCACATTAGTCTCACCACTACCTGCGTACCTACCGCCGCCCTATGCGTGCTACCGTGAA [AptLRP6-A2] | 173 nM | 1280 nM
2 | AGCAGCACAGAGGTCAGATGCGACTTGCCTATCGGCATGACACAATCTTTTGGAGCGTAACCTATGCGTGCTACCGTGAA [AptLRP6-A4] | 51 nM | 661 nM
3 | AGCAGCACAGAGGTCAGATGGCAGCTAAGCAGGCGGCTCACAAAACCATTCGCATGCGGCCCTATGCGTGCTACCGTGAA [AptLRP6-A3] | 25.7 nM | 105 nM
4 | AGCAGCACAGAGGTCAGATGCCGCAGGCAGCTGCCATTAGTCTCTATCCGTGACGGTATGCCTATGCGTGCTACCGTGAA [AptLRP6-A1] | 13.4 nM | 118 nM
